According to paper PMC6423188, “HYNIC and DOMA conjugated radiolabeled bombesin analogs as receptor-targeted probes for scintigraphic detection of breast tumor” (EJNMMI Research, 2019):

Columns and labels:
physchem = format: physicochemical; conditions: pH 7.4
Experimental: Lipophilicity of the HPLC-purified radiopeptide analogs was determined through octanol/water partition coefficients, determined at pH 7.4 by measuring the distribution of the HPLC purified radiolabeled peptides in 1-octanol and PBS. Then, 50 μL HPLC purified ^99mTc-BN1/^99mTc-BN2/^99mTc-BN3/^99mTc-BN4/^99mTc-BNS with 100 μCi of radiolabeled compound in PBS was added to a to a centrifuge tube containing 1 mL n-octanol and 1 mL PBS (0.025 M, pH 7.4). The tube was vortexed at room temperature for 2 min and they are centrifuged at 5000 rpm for 5 min to ensure complete separation of layers. Further, 100 μL of each phase was transferred into a separate pre-weighed vial and measured in the well γ-counter. The ratio of octanol layer counts to aqueous layer counts was expressed as the distribution coefficient (D, the appropriate descriptor for ionizable compounds) and logD was used for determination of lipophilicity. Counts per unit weight of the sample were calculated, and logD value as calculated as follows:
log10D = log10 [(cpm in octanol – cpm in background) / (cpm in buffer – cpm in background)]

in vitro = in vitro ADME; conditions: rat
Experimental: An aliquot (100 μL) of ^99mTc-BN1/^99mTc-BN2/^99mTc-BN3/^99mTc-BN4/^99mTc-BNS was added to 1 mL of freshly collected rat serum in centrifuge tube. The mixture was then incubated at 37 °C for 1 h; the serum protein was precipitated by adding 1 mL trichloroacetic acid (10%, V/V). The supernatant and precipitate were separated by centrifugation at 3000 rpm for 5 min. Radioactivities of both the phases were measured separately. The above experimental procedure was repeated three times. The percentage of protein binding was determined as: Plasma protein binding % = (precipitate counts (CPM) / [precipitate counts (CPM) + plasma counts (CPM)]) × 100%.

[1] = system: MDA-MB-231 tumor-bearing mice; test: In vivo biodistribution; design: species or system mouse; conditions: mean ± SD, n = 3; for Tumor uptake: MDA-MB-231 tumor
Experimental: All animal experiments were done according to the CSIR-IICB Animal Ethics Committee’s rules and regulation. Forty-eight hours before tumor cell implantation, an immunosuppressive drug (cyclosporine-A) was given intraperitoneal (i.p) at a concentration of 30 mg/kg/day. After that, MDA-MB-231 cells (5 × 10^6) 0.2 mL were implanted subcutaneously into the left flanks of the hind leg of BALB/c mice. Thereafter, the same dose of cyclosporine was given i.p. daily up to 2 weeks. Two weeks after inoculation of the tumor cells, when tumors reached ~ 0.5 cm in mean diameter, the tumor-bearing mice were used for biodistribution and imaging studies. Animals were monitored daily and their weights were recorded. Control group of mice received only 0.9 wt% saline. After cell implantation, the growth rate of the breast tumor followed a satisfactory pattern of spheroid shape and tumors are palpable within 2 to 4 weeks. MDA-MB-231 cell implanted mice tumor models were used for biodistribution and planar imaging studies of these radiolabeled new bombesin analogs.
In tissue biodistribution studies, tumor-bearing animals were divided into four groups and well hydrated for 1 h by intraperitoneal administration of saline (0.9%, 2 mL). Three animals per groups were used for biodistribution studies. After that, the radiolabeled new bombesin analogs (^99mTc-BN) were injected intravenously in each animal of each group consequently through the tail vein [24–27]. After 5, 30, 60, and 120 min intravenous administrations of radiolabeled analogs, the animals were sacrificed; blood, heart, lung, liver, kidney, stomach, intestine, spleen, pancreas, brain, muscle, and tumor were excised, weighed, and counted for radioactivity. The organ uptake was calculated as a percentage of the injected activity per gram of wet tissue (%IA/g). In order to evaluate whether binding of bombesin analogs to MDA-MB-231 cells in vivo is specific; blocking studies with ^99mTc-labeled bombesin analogs in tumor-bearing mice were carried out. Groups of three animals were injected 0.03 nmol of ^99mTc-labeled BN analogs (2 MBq) with 25 nmol of non-radiolabeled BN peptide. After 60 min and 120 min, mice were sacrificed and the organs were collected. Each organ was weighed and counted in a gamma counter along with activity standard and percentage of injected activity per gram (%IA/g) of tissue was calculated for each type of tissues. Counts were corrected for background radiation and physical decay of the radioactivity. The uptake was expressed in the percentage of injected activity per gram of each organ (%IA/g). Data were analyzed statistically by the t test, with the level of significance set at P < 0.05.

[2] = 60 min p.i., blocked with excess non-radiolabeled BN peptide

With “^99mTc-HYNIC-Asp-[Phe^13Nle^14]BN(7-14)NH2 [99mTc-BN1]” the logD (physchem) was “− 1.85 ± 0.05”, the “Percentage of plasma protein binding” value (in vitro) was 45.00% and the Tumor uptake ([1]; 5 min p.i., i.v.) was 0.78 ± 0.03 %IA/g. It also gave a Blood uptake ([1]; 5 min p.i., i.v.) of 1.32 ± 0.07 %IA/g, a Heart uptake ([1]; 5 min p.i., i.v.) of 1.02 ± 0.05 %IA/g and an Intestine uptake ([1]; 5 min p.i., i.v.) of 1.06 ± 0.05 %IA/g. It also gave a Kidney uptake ([1]; 5 min p.i., i.v.) of 2.12 ± 0.10 %IA/g, a Liver uptake ([1]; 5 min p.i., i.v.) of 0.85 ± 0.04 %IA/g and a Lung uptake ([1]; 5 min p.i., i.v.) of 0.95 ± 0.04 %IA/g. The Muscle uptake ([1]; 5 min p.i., i.v.) was 0.22 ± 0.02 %IA/g, the Pancreas uptake ([1]; 5 min p.i., i.v.) was 2.58 ± 0.12 %IA/g and the Spleen uptake ([1]; 5 min p.i., i.v.) was 0.94 ± 0.04 %IA/g. The Stomach uptake ([1]; 5 min p.i., i.v.) was 0.42 ± 0.02 %IA/g, the “Urine + urinary bladder uptake” value ([1]; 5 min p.i., i.v.) was 0.81 ± 0.04 %IA/g and the Tumor uptake ([1]; 30 min p.i., i.v.) was 2.51 ± 0.12 %IA/g. The Blood uptake ([1]; 30 min p.i., i.v.) was 0.89 ± 0.04 %IA/g, the Heart uptake ([1]; 30 min p.i., i.v.) was 0.81 ± 0.04 %IA/g and the Intestine uptake ([1]; 30 min p.i., i.v.) was 1.36 ± 0.06 %IA/g. For the same substance, the Kidney uptake ([1]; 30 min p.i., i.v.) was 4.12 ± 0.20 %IA/g, the Liver uptake ([1]; 30 min p.i., i.v.) was 0.69 ± 0.03 %IA/g and the Lung uptake ([1]; 30 min p.i., i.v.) was 0.77 ± 0.03 %IA/g. For the same substance, the Muscle uptake ([1]; 30 min p.i., i.v.) was 0.27 ± 0.01 %IA/g, the Pancreas uptake ([1]; 30 min p.i., i.v.) was 1.79 ± 0.08 %IA/g and the Spleen uptake ([1]; 30 min p.i., i.v.) was 0.51 ± 0.02 %IA/g. The Stomach uptake ([1]; 30 min p.i., i.v.) was 0.85 ± 0.04 %IA/g, the “Urine + urinary bladder uptake” value ([1]; 30 min p.i., i.v.) was 2.85 ± 0.01 %IA/g and the Tumor uptake [1, 2] was 1.20 ± 0.03 %IA/g. It also gave a Blood uptake [1, 2] of 0.34 ± 0.01 %IA/g, a Heart uptake [1, 2] of 0.44 ± 0.01 %IA/g and an Intestine uptake [1, 2] of 1.44 ± 0.05 %IA/g. For the same substance, the Kidney uptake [1, 2] was 3.10 ± 0.02 %IA/g, the Liver uptake [1, 2] was 0.55 ± 0.03 %IA/g and the Lung uptake [1, 2] was 0.57 ± 0.02 %IA/g. For the same substance, the Muscle uptake [1, 2] was 0.16 ± 0.02 %IA/g, the Pancreas uptake [1, 2] was 0.91 ± 0.04 %IA/g and the Spleen uptake [1, 2] was 0.35 ± 0.01 %IA/g. The Stomach uptake [1, 2] was 0.40 ± 0.02 %IA/g, the “Urine + urinary bladder uptake” value [1, 2] was 3.56 ± 0.02 %IA/g and the Tumor uptake ([1]; 60 min p.i., i.v.) was 1.85 ± 0.09 %IA/g. For the same substance, the Blood uptake ([1]; 60 min p.i., i.v.) was 0.32 ± 0.01 %IA/g, the Heart uptake ([1]; 60 min p.i., i.v.) was 0.47 ± 0.02 %IA/g and the Intestine uptake ([1]; 60 min p.i., i.v.) was 1.70 ± 0.08 %IA/g. The Kidney uptake ([1]; 60 min p.i., i.v.) was 3.15 ± 0.15 %IA/g, the Liver uptake ([1]; 60 min p.i., i.v.) was 0.56 ± 0.02 %IA/g and the Lung uptake ([1]; 60 min p.i., i.v.) was 0.56 ± 0.02 %IA/g. It also gave a Muscle uptake ([1]; 60 min p.i., i.v.) of 0.14 ± 0.01 %IA/g, a Pancreas uptake ([1]; 60 min p.i., i.v.) of 1.11 ± 0.05 %IA/g and a Spleen uptake ([1]; 60 min p.i., i.v.) of 0.32 ± 0.01 %IA/g. The Stomach uptake ([1]; 60 min p.i., i.v.) was 0.56 ± 0.02 %IA/g, the “Urine + urinary bladder uptake” value ([1]; 60 min p.i., i.v.) was 3.50 ± 0.15 %IA/g and the Tumor uptake ([1]; 120 min p.i., i.v.) was 1.56 ± 0.07 %IA/g. For the same substance, the Blood uptake ([1]; 120 min p.i., i.v.) was 0.05 ± 0.01 %IA/g, the Heart uptake ([1]; 120 min p.i., i.v.) was 0.17 ± 0.01 %IA/g and the Intestine uptake ([1]; 120 min p.i., i.v.) was 1.10 ± 0.05 %IA/g. The Kidney uptake ([1]; 120 min p.i., i.v.) was 1.56 ± 0.07 %IA/g, the Liver uptake ([1]; 120 min p.i., i.v.) was 0.32 ± 0.01 %IA/g and the Lung uptake ([1]; 120 min p.i., i.v.) was 0.32 ± 0.01 %IA/g. It also gave a Muscle uptake ([1]; 120 min p.i., i.v.) of 0.09 ± 0.02 %IA/g, a Pancreas uptake ([1]; 120 min p.i., i.v.) of 0.69 ± 0.03 %IA/g and a Spleen uptake ([1]; 120 min p.i., i.v.) of 0.26 ± 0.03 %IA/g. For the same substance, the Stomach uptake ([1]; 120 min p.i., i.v.) was 0.35 ± 0.01 %IA/g and the “Urine + urinary bladder uptake” value ([1]; 120 min p.i., i.v.) was 4.79 ± 0.12 %IA/g.
